Source: patent US20050260153, “Facilitation of iontophoresis using charged moieties” (published 2005)

Legend:
Settings in all cases: tags: 125I-labelled; chain copies: 2
VEGF165 [1] = biological target: T1, VEGF165 (UniProt P15692-4 P15692-4:27-191); experiment: competition; VEGF/Flt-1 inhibition less effective than 30K linear; values in figure
VEGF165 [2] = biological target: T1, VEGF165; experiment: competition; 3'-PEG more effective than non-enhanced aptamer in inhibiting VEGF/Flt-1 binding; values in figure
VEGF165 [3] = biological target: T1, VEGF165; experiment: competition; dextran conjugates inhibit VEGF/Flt-1 binding better than non-enhanced aptamer; dextran alone no effect; values in figure
VEGF165 [4] = biological target: T1, VEGF165; experiment: competition; CMC conjugates inhibit VEGF/Flt-1 binding better than non-enhanced aptamer; CMC alone no effect; values in figure
VEGF165 [5] = biological target: T1, VEGF165; experiment: competition; VEGF/Flt-1 inhibition less effective than 20K/20K branched; values in figure
VEGF165 [6] = biological target: T1, VEGF165; experiment: competition; inhibits 125I-VEGF165 binding to Flt-1/Fc; much more effective than EYE002; PBS, 1 mM CaCl2, 1 mM MgCl2, 0.01% HSA, pH 7.4, 37 C; IC50 only in figure
Experimental: Each well is then washed with 300 μL of binding buffer (PBS with 1 mM calcium chloride, 1 mM magnesium chloride, 0.01% HSA, PH 7.4) at room temperature twice. For KDR/Fc, 0.25 picomole (85 ng) of the chimeric receptor in 100 μL of binding buffer is added into the first 11 wells, whereas the twelfth well receive 0.5 picomole (118 ng) of human ICAM-1/Fc chimera protein as the background control well. For Flt-1/Fc, 0.125 picomole (30.8 ng) of the chimeric receptor in 100 μL of binding buffer each is added into the first 11 wells, whereas the background control well (#12) receive 0.5 picomole (118 ng) of human ICAM-1/Fc chimera protein. For neuropilin-1/Fc, 0.2 picomole (48 ng) of the chimeric receptor in 100 μl of binding buffer is added to all 12 wells. The chimeric receptors and human ICAM-1/Fc protein are captured onto the well by binding to the immobilized anti-human IgG₁ Fc fragment-specific antibody in each well at room temperature for 2 to 3 hour. […]
A set of 10 five-fold dilutions of the Pegaptanib (tube #1 to #10) ranging from 1 μM (or 2 μM) to 0.512 picomolar (pM) (or 1.024 pM) are each mixed with about 0.01 μCi of ¹²⁵I-VEGF₁₆₅ in binding buffer (PBS with 1 mM calcium chloride, 1 mM Magnesium Chloride, 0.01% HSA, pH 7.4) in non-stick 1.5 mL microfuge tubes, in a total 100 μL final volume each. […] The radioactivity of each well is determined by scintillation counting.

VEGF165 [7] = biological target: T1, VEGF165; experiment: competition; VEGF/Flt-1 inhibition more effective than 10K linear; values in figure

T1 sequence (P15692 other isoform, or with tags, fused parts or gaps): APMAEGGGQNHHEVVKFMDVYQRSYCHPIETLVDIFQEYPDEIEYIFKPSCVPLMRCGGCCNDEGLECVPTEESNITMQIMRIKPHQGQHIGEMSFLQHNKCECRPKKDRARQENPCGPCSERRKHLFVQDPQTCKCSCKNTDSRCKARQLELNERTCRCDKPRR

B1: 10K linear PEG VEGF aptamer conjugate (ssRNA)
RNA: CGGAAUCAGUGAAUGCUUAUACAUCCG
modifications: 2'-F on C and U, 2'-OMe on G and A except unmodified ribo A at positions 4 and 5; PEG 10K linear
binding result (VEGF165 [1]): binds

B2: 3'-PEG VEGF aptamer conjugate (ssRNA)
RNA: CGGAAUCAGUGAAUGCUUAUACAUCCG
modifications: 2'-F on C and U, 2'-OMe on G and A except unmodified ribo A at positions 4 and 5; 3'-PEG
binding result (VEGF165 [2]): binds

B3: 5'-dextran VEGF aptamer conjugate (ssRNA)
RNA: CGGAAUCAGUGAAUGCUUAUACAUCCG
modifications: 2'-F on C and U, 2'-OMe on G and A except unmodified ribo A at positions 4 and 5; 5'-dextran (e.g. 40 kDa)
binding result (VEGF165 [3]): binds

B4: 5'-CMC VEGF aptamer conjugate (ssRNA)
RNA: CGGAAUCAGUGAAUGCUUAUACAUCCG
modifications: 2'-F on C and U, 2'-OMe on G and A except unmodified ribo A at positions 4 and 5; 5'-carboxymethyl cellulose (about 50 kDa)
binding result (VEGF165 [4]): binds

B5: 5K/5K branched PEG VEGF aptamer conjugate (ssRNA)
RNA: CGGAAUCAGUGAAUGCUUAUACAUCCG
modifications: 2'-F on C and U, 2'-OMe on G and A except unmodified ribo A at positions 4 and 5; PEG 5K/5K branched
binding result (VEGF165 [5]): binds

B6: Pegaptanib (EYE001, Macugen, MacI; 20K/20K branched 5'-PEG VEGF aptamer) (ssRNA)
RNA: CGGAAUCAGUGAAUGCUUAUACAUCCG
modifications: 2'-F on C and U, 2'-OMe on G and A except unmodified ribo A at positions 4 and 5; 5'-PEG 40 kDa branched via amino linker; 3'-3' dT cap
binding result (VEGF165 [6]): binds

B7: 30K linear PEG VEGF aptamer conjugate (ssRNA)
RNA: CGGAAUCAGUGAAUGCUUAUACAUCCG
modifications: 2'-F on C and U, 2'-OMe on G and A except unmodified ribo A at positions 4 and 5; PEG 30K linear
binding result (VEGF165 [7]): binds
